Reference: patent US20150218281A1 (Ablynx, published 2015)

B1: OX40L19D08 (VHH)
VHH: EVQLVESGGGLVQAGASLRLSCAASGRRFISNYAMGWFRQAPGQERAFVAAISRSGSITYYTDSVKGRFSISRDYAKSTVYLQMDNLKPEDTAVYYCAADGGAVRDLTTNLPDYWGRGTQVTVSS
notes: monovalent Nanobody from E. coli; not shown: C-terminal c-myc and His6 tag
B2: OX40L18E09 (VHH)
VHH: EVQLVESGGGLVQAGGSLRLSCAASRNILSLNTMGWYRHAPGKPRELVARISSNSKTDYADSVKGRFTISRDNAKNTVLLQMNSLKPEDTGVYYCNLNVWRTSSDYWGQGTQVTVSS
notes: as for B1
B3: OX40L19A07 (VHH)
VHH: EVQLVESGGGLVQAGGSLRLSCAASGFTLDDYAIAWFRQAPGKEREGVSRIKISNGRTTYAGSVKGRFTISSDNAKNTVYLQMNSLNAEDTAVYYCAADRSSLLFGSNWDRKARYDYWGQGTQVTVSS
notes: as for B1

Columns and labels:
[1] = target: T1, recombinant human OX40L (extracellular domain, R&D Systems) (human, UniProt P23510 51-183); test: SPR, second injection after competitor OX40L19A07
T1 construct: also called hOX40L; rec. hOX40L
T1 sequence: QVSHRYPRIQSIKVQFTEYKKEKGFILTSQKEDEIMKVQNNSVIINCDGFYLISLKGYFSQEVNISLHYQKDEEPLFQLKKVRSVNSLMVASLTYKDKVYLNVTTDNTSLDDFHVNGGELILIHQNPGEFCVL
Experimental: (§1) In addition, it was investigated to what extend the 7 anti-OX40L Nanobodies have a different or identical or overlapping epitope. Standard conditions were as described above. […] 1300 RU. A dual injection was performed at 10 μl/min for 2 min, starting with 500 nM of the first Nanobody, followed by 500 nM of the second Nanobody. After 10 min dissociation, regeneration of the surface was performed by injection of 50 mM NaOH for 5-20 sec at 100 μl/min.

[2] = target: T2, full length human OX40L expressed on CHO cells (human, UniProt P23510 1-183); test: competition FACS with hOX40/Fc on CHO-hOX40L
T2 construct: CHO K1 stably transfected as described for CAKI cells; also called CHO-hOX40L; hOX40L expressing CHO cells
T2 sequence: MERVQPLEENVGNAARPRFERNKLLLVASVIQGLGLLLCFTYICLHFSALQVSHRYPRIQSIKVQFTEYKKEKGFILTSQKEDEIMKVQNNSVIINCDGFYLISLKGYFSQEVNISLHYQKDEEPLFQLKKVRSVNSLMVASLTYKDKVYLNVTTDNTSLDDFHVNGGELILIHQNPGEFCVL
Experimental: The competition FACS assay was performed as described in example 2.

[3] = target: T2, full length human OX40L expressed on …; test: competition FACS, 3.1 nM hOX40/Fc on hOX40L expressing cells
hCD40L = target: T3, hCD40L (human, UniProt P29965 113-261); test: competition ELISA on neutravidin captured biotinylated hOX40L
T3 sequence (looked up): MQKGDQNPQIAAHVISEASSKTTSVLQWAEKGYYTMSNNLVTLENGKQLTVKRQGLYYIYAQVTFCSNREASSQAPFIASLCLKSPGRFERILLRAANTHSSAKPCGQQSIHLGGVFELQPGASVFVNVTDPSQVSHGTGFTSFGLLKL
Experimental: (§2) The binding of OX40L blocking Nanobodies to other TNF family members was tested in a competition ELISA.
(§3) Detection was done using sTMB (SDT Reagents, Baesweiler, Germany), the reaction was stopped with 1M HCl and absorbance was determined at 450 nm.

hCD30L = target: T4, hCD30L (human, UniProt P32971 63-234); test: as above
T4 sequence (looked up): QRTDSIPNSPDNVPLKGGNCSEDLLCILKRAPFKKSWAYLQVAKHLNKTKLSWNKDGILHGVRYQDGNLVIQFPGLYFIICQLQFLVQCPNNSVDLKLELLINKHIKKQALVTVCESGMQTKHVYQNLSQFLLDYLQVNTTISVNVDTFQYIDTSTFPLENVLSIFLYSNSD
Experimental: as §2, §3

[4] = target: T5, human tumor necrosis factor-related apoptosis inducing ligand (human, UniProt P50591 114-281); test: as above
T5 construct: also called hTRAIL; TRAIL
Experimental: as §2, §3

hTNF-alpha = hTNF-alpha (human, UniProt P01375 77-233); test: as above
Experimental: as §2, §3

[5] = target: T6, human Receptor Activator for Nuclear Factor kappa B Ligand (human, UniProt O14788 143-317, limits assumed); test: as above
T6 construct: also called hRANKL; RANKL
T6 sequence (looked up): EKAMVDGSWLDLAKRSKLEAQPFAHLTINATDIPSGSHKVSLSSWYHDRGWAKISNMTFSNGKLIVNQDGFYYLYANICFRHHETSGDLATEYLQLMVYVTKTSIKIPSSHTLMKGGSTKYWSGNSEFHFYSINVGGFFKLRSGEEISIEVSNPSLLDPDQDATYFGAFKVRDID
Experimental: as §2, §3

[6] = target: T1, recombinant human OX40L (extracellular …); test: SPR, second injection after competitor OX40L01B11
Experimental: as §1

[7] = target: T7, biotinylated hOX40L (R&D Systems, biotinylated in house) (human, UniProt P23510 51-183, biotinylated with Sulfo-NHS-LC-Biotin, sites not stated); test: AlphaScreen, 31 pM biotinylated hOX40L + 80 pM OX40/Fc
T7 construct: same bought protein as m10, biotinylated; also called biotinylated OX40L
T7 sequence: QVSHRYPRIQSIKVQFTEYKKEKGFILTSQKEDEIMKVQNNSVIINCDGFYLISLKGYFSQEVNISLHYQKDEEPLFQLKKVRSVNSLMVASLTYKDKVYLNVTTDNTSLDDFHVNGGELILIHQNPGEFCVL
Experimental: (§4) Next, streptavidin donor beads were added and incubated for an additional 1 hour. Fluorescence was measured by reading plates on the EnVision Multilabel Plate Reader using an excitation wavelength of 680 nm and an emission wavelength of 520 nm.

[8] = target: T2, full length human OX40L expressed on …; test: cell-based or functional assay
[9] = target: T1, recombinant human OX40L (extracellular …); test: SPR, second injection after competitor OX40L01E10
Experimental: as §1

[10] = target: T1, recombinant human OX40L (extracellular …); test: SPR, second injection after competitor OX40L19D08
Experimental: as §1

[11] = target: T7, biotinylated hOX40L (R&D Systems, …); test: AlphaScreen, 120 pM biotinylated hOX40L + 0.2 nM hOX40/Fc
Experimental: as §4

[12] = target: T8, cynomolgus OX40L expressed on CHO cells (cynomolgus monkey, UniProt P23510 1-183 (human entry)); test: FACS binding to CHO cells, anti-c-myc detection
T8 construct: also called cynoOX40L; CHO-cynoOX40L
T8 chain: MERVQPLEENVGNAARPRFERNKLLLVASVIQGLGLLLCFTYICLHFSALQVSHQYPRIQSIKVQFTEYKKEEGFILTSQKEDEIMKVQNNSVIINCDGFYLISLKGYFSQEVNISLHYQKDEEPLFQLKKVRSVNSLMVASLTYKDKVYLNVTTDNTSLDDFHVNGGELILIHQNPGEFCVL
Experimental: (§5) Transfection of CHO K1 with the respective expression plasmid DNA and selection of clones with high expression levels was performed as described in Example 1. Binding of the Nanobodies to the cell surface expressed OX40L was assessed by FACS analysis of cells as described below.
(§6) After washing bound Nanobodies were detected in FACSArray™ using mouse anti-c-myc and PE conjugated goat anti-mouse IgG.

[13] = target: T2, full length human OX40L expressed on …; test: FACS binding to CHO cells, anti-c-myc detection
Experimental: as §5, §6

[14] = target: T1, recombinant human OX40L (extracellular …); test: SPR, after second injection of buffer HBS-EP+
Experimental: as §1

[15] = target: T1, recombinant human OX40L (extracellular …); test: SPR, second injection after competitor OX40L15B07
Experimental: as §1

[16] = target: T1, recombinant human OX40L (extracellular …); test: SPR, second injection after competitor OX40L01E07
Experimental: as §1

[17] = target: T1, recombinant human OX40L (extracellular …); test: SPR, second injection after competitor OX40L18E09
Experimental: as §1

T5 sequence (P50591 114-281 limits assumed): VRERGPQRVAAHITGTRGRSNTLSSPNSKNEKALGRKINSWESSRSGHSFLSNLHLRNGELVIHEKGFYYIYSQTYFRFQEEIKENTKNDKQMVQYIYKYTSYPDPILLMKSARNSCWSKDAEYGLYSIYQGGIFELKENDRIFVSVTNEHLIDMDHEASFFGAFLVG
Sequence of hTNF-alpha (P01375 77-233 limits assumed): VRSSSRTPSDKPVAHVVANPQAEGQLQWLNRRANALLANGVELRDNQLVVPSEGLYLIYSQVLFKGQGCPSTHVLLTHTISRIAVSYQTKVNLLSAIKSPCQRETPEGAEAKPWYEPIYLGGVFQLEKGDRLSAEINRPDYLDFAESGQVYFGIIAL

Row | Binder | Binding Level sample 2 (RU) [1] [RU] | Binding Level sample 2 - sample 1 (RU) [1] [RU] | IC50 [2] [nM] | IC50 [3] [nM] | binding result (hCD40L) | binding result (hCD30L) | binding result [4] | binding result (hTNF-alpha) | binding result [5] | Binding Level sample 2 (RU) [6] [RU] | Binding Level sample 2 - sample 1 (RU) [6] [RU] | IC50 [7] [nM] | IC50, IL4 production, T-cell activation assay, donor 1 [8] [nM] | IC50, IL4 production, T-cell activation assay, donor 2 [8] [nM] | Binding Level sample 2 (RU) [9] [RU] | Binding Level sample 2 - sample 1 (RU) [9] [RU] | Binding Level sample 2 (RU) [10] [RU] | Binding Level sample 2 - sample 1 (RU) [10] [RU] | IC50 [11] [nM] | EC50 [12] [nM] | other results
1 | B1 | 224 | 47 | 4 | 3.31 | no binding (tested: starting from 100 fold molar excess) | no binding (tested: starting from 100 fold molar excess) | no binding (tested: starting from 100 fold molar excess) | no binding (tested: starting from 100 fold molar excess) | no binding (tested: starting from 100 fold molar excess) | 468 | 159 | 0.133 | 90 | 132 | 275 | 49 | 236 | 7 | 0.285 | 3.4 | IC50, IL4 production, T-cell activation assay, donor 3 [8]: 36 nM; IC50, IL4 production, T-cell activation assay, donor 4 [8]: 96 nM; EC50 [13]: 2.85 nM; Binding Level sample 2 (RU) [14]: 184 RU; Binding Level sample 2 - sample 1 (RU) [14]: -38 RU; Binding Level sample 2 (RU) [15]: 239 RU; Binding Level sample 2 - sample 1 (RU) [15]: 42 RU; Binding Level sample 2 (RU) [16]: 187 RU; Binding Level sample 2 - sample 1 (RU) [16]: 3 RU; Binding Level sample 2 (RU) [17]: 224 RU; Binding Level sample 2 - sample 1 (RU) [17]: 33 RU
2 | B2 | 206 | 30 | 2 | 1.73 | no binding (tested: starting from 100 fold molar excess) | no binding (tested: starting from 100 fold molar excess) | no binding (tested: starting from 100 fold molar excess) | no binding (tested: starting from 100 fold molar excess) | no binding (tested: starting from 100 fold molar excess) | 312 | -7 | 0.041 | 36 | 45 | 245 | 21 | 225 | -3 | 0.112 | 3.8 | IC50, IL4 production, T-cell activation assay, donor 3 [8]: 36 nM; IC50, IL4 production, T-cell activation assay, donor 4 [8]: 49 nM; EC50 [13]: 2.26 nM; Binding Level sample 2 (RU) [14]: 168 RU; Binding Level sample 2 - sample 1 (RU) [14]: -16 RU; Binding Level sample 2 (RU) [15]: 207 RU; Binding Level sample 2 - sample 1 (RU) [15]: 11 RU; Binding Level sample 2 (RU) [16]: 200 RU; Binding Level sample 2 - sample 1 (RU) [16]: 15 RU; Binding Level sample 2 (RU) [17]: 195 RU; Binding Level sample 2 - sample 1 (RU) [17]: 5 RU
3 | B3 | 183 | 6 | 13 | 16.6 | no binding (tested: starting from 100 fold molar excess) | no binding (tested: starting from 100 fold molar excess) | no binding (tested: starting from 100 fold molar excess) | no binding (tested: starting from 100 fold molar excess) | no binding (tested: starting from 100 fold molar excess) | 371 | 70 | 0.355 | 596 | 618 | 239 | 12 | 205 | -24 | 0.54 | 5.34 | EC50 [13]: 5.67 nM; Binding Level sample 2 (RU) [14]: 160 RU; Binding Level sample 2 - sample 1 (RU) [14]: -15 RU; Binding Level sample 2 (RU) [15]: 207 RU; Binding Level sample 2 - sample 1 (RU) [15]: 9 RU; Binding Level sample 2 (RU) [16]: 179 RU; Binding Level sample 2 - sample 1 (RU) [16]: -3 RU; Binding Level sample 2 (RU) [17]: 194 RU; Binding Level sample 2 - sample 1 (RU) [17]: 2 RU
